Common to all, as to assay: cell-based or functional assay
In assay [1] the target is HIV-1 Env of isolate 92UG001 (subtype D) (HIV-1).
Assay [2] deals with HIV-1 Env of isolate 92UG005 (subtype D) (HIV-1).
Assay [3] addresses HIV-1 Env of isolate 92UG024 (subtype D) (HIV-1).
Assay [4] addresses HIV-1 Env of isolate 92UG046 (subtype D) (HIV-1).
Assay [5] concerns the target HIV-1 Env of isolate 98CN006 (subtype CRF08_BC) (HIV-1).
Assay [6] addresses HIV-1 Env of isolate 98CN009 (subtype CRF07_BC) (HIV-1).
Assay [7] concerns the target HIV-1 Env of pseudovirus isolate MGRM-G-001 (subtype G) (HIV-1).
Assay [8] has as its target HIV-1 Env of pseudovirus isolate MGRM-G-004 (subtype G) (HIV-1).
Assay [9] addresses HIV-1 Env of pseudovirus isolate MGRM-G-006 (subtype G) (HIV-1).
Assay [10] deals with HIV-1 Env of pseudovirus isolate MGRM-G-009 (subtype G) (HIV-1).
For assay [11], the target named is HIV-1 Env of pseudovirus isolate MGRM-G-011 (subtype G) (HIV-1).
Assay [12] deals with HIV-1 Env of pseudovirus isolate MGRM-G-013 (subtype G) (HIV-1).
In assay [13] the target is HIV-1 Env of pseudovirus isolate MGRM-G-014 (subtype G) (HIV-1).
In assay [14] the target is HIV-1 Env of pseudovirus isolate MGRM-G-015 (subtype G) (HIV-1).
Assay [15] has as its target HIV-1 Env of pseudovirus isolate MGRM-G-016 (subtype G) (HIV-1).
Assay [16] deals with HIV-1 Env of pseudovirus isolate MGRM-G-017 (subtype G) (HIV-1).
For assay [17], the target named is HIV-1 Env of pseudovirus isolate MGRM-G-019 (subtype G) (HIV-1).
Assay [18] deals with HIV-1 Env of pseudovirus isolate MGRM-G-024 (subtype G) (HIV-1).
The target in assay [19] is HIV-1 Env of pseudovirus isolate MGRM-G-025 (subtype G) (HIV-1).
For assay [20], the target named is HIV-1 Env of pseudovirus isolate MGRM-G-027 (subtype G) (HIV-1).
For assay [21], the target named is HIV-1 Env of pseudovirus isolate MGRM-G-028 (subtype G) (HIV-1).
For assay [22], the target named is envelope of aMLV pseudovirus (negative control).

Sequence of PGT-141 (antibody) (VH): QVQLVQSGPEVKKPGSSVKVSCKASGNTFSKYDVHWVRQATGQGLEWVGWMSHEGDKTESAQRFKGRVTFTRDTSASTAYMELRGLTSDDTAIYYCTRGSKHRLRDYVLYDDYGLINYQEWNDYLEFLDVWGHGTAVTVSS
Sequence of PGT-141 (antibody) (VL): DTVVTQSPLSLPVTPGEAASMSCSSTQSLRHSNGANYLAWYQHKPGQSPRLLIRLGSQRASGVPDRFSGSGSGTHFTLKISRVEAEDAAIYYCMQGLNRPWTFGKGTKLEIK
Sequence of PGT-144 (antibody) (VH): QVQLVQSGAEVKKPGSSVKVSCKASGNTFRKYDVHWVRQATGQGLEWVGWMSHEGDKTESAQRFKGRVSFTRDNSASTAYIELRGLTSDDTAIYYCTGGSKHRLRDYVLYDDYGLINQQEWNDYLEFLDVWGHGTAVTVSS
Sequence of PGT-144 (antibody) (VL): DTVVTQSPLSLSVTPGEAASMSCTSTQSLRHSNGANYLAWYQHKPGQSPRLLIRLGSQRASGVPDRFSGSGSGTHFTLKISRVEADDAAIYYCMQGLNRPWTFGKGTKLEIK
Sequence of PGT-142 (antibody) (VH): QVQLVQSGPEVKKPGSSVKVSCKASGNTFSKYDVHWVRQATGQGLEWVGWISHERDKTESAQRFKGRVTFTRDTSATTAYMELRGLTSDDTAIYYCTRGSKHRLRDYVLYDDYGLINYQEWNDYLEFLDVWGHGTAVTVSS
Sequence of PGT-143 (antibody) (VH): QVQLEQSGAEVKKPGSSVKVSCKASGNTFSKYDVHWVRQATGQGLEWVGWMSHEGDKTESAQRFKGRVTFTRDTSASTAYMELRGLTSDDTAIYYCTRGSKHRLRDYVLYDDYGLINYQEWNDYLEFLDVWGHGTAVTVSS
Sequence of PGT-143 (antibody) (VL): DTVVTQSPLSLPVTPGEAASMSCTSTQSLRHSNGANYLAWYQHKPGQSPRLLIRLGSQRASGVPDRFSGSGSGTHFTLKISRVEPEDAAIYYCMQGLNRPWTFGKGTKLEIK
Sequence of PGT-145 (antibody) (VH): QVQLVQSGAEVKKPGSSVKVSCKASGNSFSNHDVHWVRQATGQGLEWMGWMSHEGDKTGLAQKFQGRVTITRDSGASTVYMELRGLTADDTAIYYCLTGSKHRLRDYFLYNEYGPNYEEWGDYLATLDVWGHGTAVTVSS
Sequence of PGT-145 (antibody) (VL): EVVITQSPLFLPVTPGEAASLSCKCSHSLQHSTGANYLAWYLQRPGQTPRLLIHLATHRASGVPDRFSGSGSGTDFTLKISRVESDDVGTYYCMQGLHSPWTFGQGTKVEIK

For the substance PGT-141 (antibody), the IC50 (neutralization) was > 50 µg/mL in assay [1]; > 50 µg/mL in assay [2]; > 50 µg/mL in assay [3]; > 50 µg/mL in [4]; > 50 µg/mL in assay [5]; 1.28 µg/mL in [6]. Further, the IC50 in assay [7] is 0.392 µg/mL; in assay [8] it was > 50 µg/mL; in assay [9] it was 0.043 µg/mL; in [10], 1.89 µg/mL; in assay [11] it was 0.086 µg/mL; in assay [12] it was > 50 µg/mL. Further, the IC50 in [13] was 0.222 µg/mL; in [14], > 50 µg/mL; in assay [15] it was 4.69 µg/mL; in [16] it was 0.164 µg/mL; in assay [17] it was 20.3 µg/mL; in [18], 0.051 µg/mL. The concentration for half-maximal inhibition (IC50) in assay [19] was > 50 µg/mL; in assay [20], > 50 µg/mL; in [21], 24.9 µg/mL; in assay [22] it was > 50 µg/mL.

On to PGT-142 (antibody), for which the IC50 (neutralization) was > 50 µg/mL in assay [1]; > 50 µg/mL in assay [2]; > 50 µg/mL in assay [3]; > 50 µg/mL in [4]; > 50 µg/mL in assay [5]; 4 µg/mL in [6]. Moreover, the IC50 in assay [7] was 0.362 µg/mL; in assay [8] it was > 50 µg/mL; in [9], 0.019 µg/mL; in [10], 2.81 µg/mL; in assay [11], 0.046 µg/mL; in assay [12], > 50 µg/mL. In addition, the half-inhibitory concentration (IC50) is 0.076 µg/mL in [13]; > 50 µg/mL in [14]; 8.17 µg/mL in assay [15]; 0.125 µg/mL in assay [16]; 5.95 µg/mL in [17]; 0.054 µg/mL in [18]. Further, the half-maximal inhibitory concentration (IC50) was > 50 µg/mL in [19], > 50 µg/mL in assay [20], 30.3 µg/mL in assay [21] and > 50 µg/mL in assay [22].

Turning to PGT-143 (antibody), the IC50 (neutralization) is > 50 µg/mL in assay [1]; > 50 µg/mL in [2]; > 50 µg/mL in [3]; > 50 µg/mL in assay [4]; > 50 µg/mL in assay [5]; 10.2 µg/mL in assay [6]. The IC50 in [7] was 0.423 µg/mL; in [8] it was > 50 µg/mL; in [9], 0.031 µg/mL; in [10], 2.97 µg/mL; in assay [11], 0.074 µg/mL; in [12] it was > 50 µg/mL. Besides, the half-maximal inhibitory concentration (IC50) in [13] is 0.107 µg/mL; in assay [14], > 50 µg/mL; in assay [15] it was 7.6 µg/mL; in [16], 0.107 µg/mL; in [17], 4.77 µg/mL; in assay [18], 0.048 µg/mL. Also, the half-maximal inhibitory concentration (IC50) in assay [19] was > 50 µg/mL; in [20] it was > 50 µg/mL; in [21], 43 µg/mL; in assay [22], > 50 µg/mL.

In the case of PGT-144 (antibody), the IC50 (neutralization) in assay [1], in assay [2], in assay [3], in assay [4], in assay [5] and in assay [6] was > 50 µg/mL throughout. The IC50 in assay [7] was > 50 µg/mL; in [8] it was > 50 µg/mL; in assay [9] it was 3.84 µg/mL; in assay [10], > 50 µg/mL; in assay [11], 1.58 µg/mL; in [12], > 50 µg/mL. Moreover, the half-inhibitory concentration (IC50) is 0.562 µg/mL in assay [13]; > 50 µg/mL in assay [14]; > 50 µg/mL in assay [15]; 9.97 µg/mL in [16]; > 50 µg/mL in [17]; 7.92 µg/mL in assay [18]. Also, the 50% inhibitory concentration (IC50) in [19], in assay [20], in assay [21] and in assay [22] was > 50 µg/mL throughout.

For PGT-145 (antibody), the IC50 (neutralization) was > 50 µg/mL in assay [1]; > 50 µg/mL in assay [2]; 1.6 µg/mL in assay [3]; > 50 µg/mL in [4]; > 50 µg/mL in assay [5]; 0.136 µg/mL in assay [6]. The 50% inhibitory concentration (IC50) was 0.028 µg/mL in assay [7]; > 50 µg/mL in assay [8]; 0.286 µg/mL in assay [9]; 0.982 µg/mL in [10]; 0.028 µg/mL in assay [11]; > 50 µg/mL in assay [12]. In addition, the IC50 amounted to 0.144 µg/mL in assay [13]; 10.5 µg/mL in assay [14]; 0.081 µg/mL in assay [15]; 0.205 µg/mL in assay [16]; 0.041 µg/mL in assay [17]; 0.06 µg/mL in assay [18]. The IC50 in assay [19] was > 50 µg/mL; in [20], 0.433 µg/mL; in assay [21], 0.046 µg/mL; in assay [22] it was > 50 µg/mL.

By IC50 is commonly meant the point on the concentration scale where inhibition reaches its midpoint. The low end stands for greater potency in that assay, the high end for weaker potency in that assay.

The values are drawn from patent US20160264649A1.
